Laboratory results taken from patent US20260263521A1 (AIMED BIO, published 2026).
Where a chain is given by its changes, count along the chain named. Where “and” joins values, the source holds several entries; their conditions need not be identical. Equal entries are not always repeated. Values belong to the binder of their own block, whether it stands above or below them.

Experiments:
Hybrid CD200R1 MH [1] = biological target: T1, Hybrid CD200R1 MH (mouse;human, UniProt Q9ES57;Q8TD46); test: ELISA, plate-bound MH hybrid (1 ug/mL), antibody 0.0192-300 nM, O.D 450 nm; panel 'P001 MH domain-2)'
T1 construct: single domain; mouse D1 over human D2; also called MH hybrid domain; P001 MH domain
T1 sequence (hybrid extracellular part, looked up): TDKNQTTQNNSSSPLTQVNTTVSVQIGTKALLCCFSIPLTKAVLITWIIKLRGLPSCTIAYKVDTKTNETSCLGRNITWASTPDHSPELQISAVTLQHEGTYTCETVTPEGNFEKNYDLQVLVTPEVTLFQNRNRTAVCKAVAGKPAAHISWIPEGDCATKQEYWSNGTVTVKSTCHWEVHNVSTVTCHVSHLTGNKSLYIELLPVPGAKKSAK
Description: (§1) Recombinant proteins were produced from the extracellular Ig-like V-type domain and Ig-like C2-type domain of human CD200R1, each designed as human-mouse (HM hybrid domain) and mouse-human (MH hybrid domain) recombinant proteins. A 96-well plate was coated at a concentration of 1 μg/mL with each protein at 4° C. for 16 hours and blocked with 3% skim milk. […] After color development with TMB substrate solution (Thermo Scientific, 34029, 1-Step™ Ultra TMB-ELISA Substrate Solution), the color reaction was stopped with a stop solution (Invitrogen, SS04, ELISA Stop Solution), and the absorbance was measured at an O.D. of 450 nm.

[2] = biological target: T2, human CD200RLa (Sino Biological, 11620-H08H) recombinant protein (human, UniProt Q6Q8B3 24-239); test: ELISA, plate-bound human CD200RLa (2 ug/mL), antibody 0.0192-300 nM, O.D 450 nm; panel 'recombinant human CD200RLa'
T2 construct: Bought; construct not described
T2 sequence (looked up): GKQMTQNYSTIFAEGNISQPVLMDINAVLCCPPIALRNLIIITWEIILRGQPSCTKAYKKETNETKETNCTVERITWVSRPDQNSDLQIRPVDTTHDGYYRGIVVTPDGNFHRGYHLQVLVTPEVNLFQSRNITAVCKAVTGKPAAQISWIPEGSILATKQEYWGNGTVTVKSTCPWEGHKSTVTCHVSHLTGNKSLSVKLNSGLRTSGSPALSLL
Method in brief: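 Plates coated overnight (16 h, 4° C) with human or cynomolgus CD200RLa recombinant protein, blocked with 3% skim milk; bound antibody detected by TMB colour development, reaction stopped before reading.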

[3] = biological target: T3, monkey CD200RLa (Sino Biological, 11576-C02H) recombinant protein (monkey (cyno), UniProt A0A2K5W6R0 30-246); test: ELISA, plate-bound monkey CD200RLa (2 ug/mL), antibody 0.0192-300 nM, O.D 450 nm; panel 'recombinant cynomolgus CD200RLa/Fc'
T3 construct: Bought; construct not described; also called cyno CD200RLa
T3 sequence: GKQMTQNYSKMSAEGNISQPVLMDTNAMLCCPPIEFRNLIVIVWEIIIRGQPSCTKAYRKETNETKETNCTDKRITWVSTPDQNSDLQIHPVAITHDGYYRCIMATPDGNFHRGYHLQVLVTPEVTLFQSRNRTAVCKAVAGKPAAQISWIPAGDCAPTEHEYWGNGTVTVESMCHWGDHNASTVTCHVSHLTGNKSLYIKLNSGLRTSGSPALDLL
Description: 96-well plates were coated with human CD200RLa (Sino Biological, 11620-H08H) and monkey CD200RLa (Sino Biological, 11576-C02H) recombinant proteins at a concentration of 2 μg/mL at 4° C. for 16 hours, and blocked with 3% skim milk for 1 hour. […] Color was developed with a TMB substrate solution (Thermo Scientific, 34029, 1-Step™ Ultra TMB-ELISA Substrate Solution). The color reaction was stopped with stop solution (Invitrogen, SS04, ELISA Stop Solution).

[4] = biological target: T4, human CD200R1 expressed on cells (Jurkat-CD200R1, U937-CD200R1, HH cells) (human, UniProt Q8TD46 25-348); test: flow cytometry on Jurkat-CD200R1 and HH cells, 500 nM antibody in IgG1 form
T4 construct: whole, on cells; also called HH (CRL-2105); cell surface-expressed CD200R1
T4 sequence (looked up): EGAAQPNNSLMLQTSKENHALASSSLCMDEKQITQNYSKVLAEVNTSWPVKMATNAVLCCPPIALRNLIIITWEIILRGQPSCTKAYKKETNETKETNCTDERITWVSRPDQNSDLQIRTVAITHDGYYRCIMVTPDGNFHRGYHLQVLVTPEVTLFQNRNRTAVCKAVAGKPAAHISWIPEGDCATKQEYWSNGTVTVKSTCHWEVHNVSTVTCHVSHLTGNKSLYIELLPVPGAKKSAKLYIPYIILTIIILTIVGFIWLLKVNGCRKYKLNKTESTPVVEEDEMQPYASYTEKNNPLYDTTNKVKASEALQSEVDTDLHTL
Description: The cells were washed by centrifugation at 130 g for 5 minutes. The cells were seeded onto 96-well round-bottom plates (SPL, #34296) at a density of 1×10⁵ cells/well in Flow cytometry staining buffer (Invitrogen, #00-4222-26) or FACS buffer. […] After incubation for 1 hour at 4° C., the cells were treated with Alexa-647 Goat anti-human IgG (H+L) cross-adsorbed secondary antibody (Invitrogen, #A21445) and incubated at 4° C. for an additional 30 minutes. After washing twice with FACS buffer, flow cytometry analysis was performed using a Novocyte Flow cytometer (Agilent).

[5] = biological target: T5, mouse CD200R1 protein (R&D systems, 2554-CD) (mouse, UniProt Q9ES57 26-238, limits assumed); test: ELISA, plate-bound mouse CD200R1 (2 ug/mL), IgG 0.0192-300 nM, OD 450 nm; panel 'mouse CD200R1'
T5 construct: Bought; construct not described
T5 sequence (looked up): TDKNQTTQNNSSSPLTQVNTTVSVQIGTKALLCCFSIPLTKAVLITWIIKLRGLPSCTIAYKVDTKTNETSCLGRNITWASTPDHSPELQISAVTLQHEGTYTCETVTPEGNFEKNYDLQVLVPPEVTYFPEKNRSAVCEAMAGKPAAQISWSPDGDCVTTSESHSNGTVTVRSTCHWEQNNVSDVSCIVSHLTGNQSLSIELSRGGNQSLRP
Method in brief: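 Wells coated with antigen at 2 μg/mL (4 °C, 16 h) and blocked with 3% skim milk before IgG addition. Bound antibody developed with TMB, reaction stopped, absorbance read at 450 nm.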

[6] = biological target: T6, human CD200R1 recombinant protein (construct not stated) (human, UniProt Q8TD46 27-266, limits assumed); test: hybridoma ELISA on human CD200R1
T6 sequence (looked up): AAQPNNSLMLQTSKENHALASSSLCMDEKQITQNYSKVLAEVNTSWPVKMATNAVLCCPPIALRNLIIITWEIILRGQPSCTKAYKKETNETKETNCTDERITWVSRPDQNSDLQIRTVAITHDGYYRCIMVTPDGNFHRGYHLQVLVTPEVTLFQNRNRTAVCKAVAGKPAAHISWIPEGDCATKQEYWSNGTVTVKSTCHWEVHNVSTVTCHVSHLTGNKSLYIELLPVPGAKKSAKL

Hybrid CD200R1 MH [7] = biological target: T1, Hybrid CD200R1 MH; test: ELISA, plate-bound MH hybrid (1 ug/mL), antibody 0.0192-300 nM, O.D 450 nm; panel 'P001 MH domain-4)'
Description: as §1

[8] = biological target: T4, human CD200R1 expressed on cells …; test: flow cytometry, HH cells; drawn table, row EC50
[9] = biological target: T6, human CD200R1 recombinant protein …; test: ELISA on human CD200R1, O.D 450 nm, 0.0192-300 nM; panel 'P001_CD200R1 human 1'
Description: 96-well plates were coated with human CD200R1 (R&D systems, 3414-CD) and mouse CD200R1 protein (R&D systems, 2554-CD) at a concentration of 2 μg/mL at 4° C. for 16 hours and then were blocked with 3% skim milk.
Color was developed with a TMB substrate solution (Thermo Scientific, 34029, 1-Step™ TMB-ELISA Ultra Substrate Solution). The color reaction was stopped with stop solution (Invitrogen, SS04, ELISA Stop Solution). The absorbance was measured at an optical density of 450 nm.
The secondary engineered antibodies were evaluated by ELISA in the same manner as in Examples described above.

[10] = biological target: T4, human CD200R1 expressed on cells …; test: flow cytometry, HH cells; drawn table

- binding result [2]: no binding (tested: 300 nM)
- binding result [3]: no binding (tested: 300 nM)
- binding result [5]: no binding (tested: 300 nM)
B1: P001008 (IgG) (antibody, V domains shown)
VH: EVQLLESGGGLVQPGGSLRLSCAASGFTFSSYDMSWVRQAPGKGLEWVSWISHGGGSIYYADSVKGRFTISRDNSKNTLYLQMNSLRAEDTAVYYCARDAPALMHSLFDYWGQGTLVTVSS
VL: QSVLTQPPSASGTPGQRVTISCSGSSSNIGSNHVNWYQQLPGTAPKLLIYYDSQRPSGVPDRFSGSKSGTSASLAISGLRSEDEADYYCGSWDASLNGYVFGGGTKLTVL
- binding result (Hybrid CD200R1 MH [1]): no binding (tested: 300 nM)
- MFI normalized to P001017 (chimeric OX108), % [4]: > 50%

- binding result [2]: no binding (tested: 300 nM)
- binding result [5]: no binding (tested: 300 nM)
B2: P001010 (IgG) (antibody, V domains shown)
VH: EVQLLESGGGLVQPGGSLRLSCAASGFTFSNYAMSWVRQAPGKGLEWVSSISPGGGSIYYADSVKGRFTISRDNSKNTLYLQMNSLRAEDTAVYYCARDPGQMFWPLFDYWGQGTLVTVSS
VL: B1 VL with S23T, H33N, N35S, Y51D, Q54H
- binding result (Hybrid CD200R1 MH [1]): no binding (tested: 300 nM)

B3: 6A10 (hybridoma clone) (antibody, V domains shown)
VH: QLQQSGAELVRSGASVKLSCTASGFNIKDYYLHWIKQRPEQGLEWIGWIDPENGDTEYAPKFQGKATMTADTSSNTAYLQLISLTSEDAAVYYCFAGGSYWGQGTSVTVSS
VL: DIVMTQSPSSLSVSAGEKVTMSCKSSQSLLNSGNQKNYLAWYQQKPGQPPKLLIYGASTRESGVPDRFTGSGSGTDFTLTISSVQAEDLAVYYCQNDHSYPYTFGGGTKLEIK
- ELISA O.D. [6]: ≥ 1.5 O.D.
- binding result (Hybrid CD200R1 MH [7]): no binding (tested: 300 nM)

- binding result [2]: no binding (tested: 300 nM)
B4: P001018 (huOX108.1) (antibody, V domains shown)
VH: QVQLVQSGAEVKKPGASVKVSCKASGYTFTSYVMHWVRQAPGQGLEWMGYINPYNDDTNYNEKFKGRVTMTRDTSTSTVYMELSSLRSEDTAVYYCAREDYYGSRWGYWGQGTLVTVSS
VL: DIVLTQSPASLAVSPGQRATITCRASKSVSTSGYSYMHWYQQKPGQPPKLLIYLASNLESGVPARFSGSGSGTDFTLTINPVEANDTANYYCQHSRELLTFGQGTKVEIK
notes: also called humanized antibody P001018
- EC50 [8]: 6.64 nM
- EC50 (read off the curve) [9]: ~2 nM and ~5 nM
- MFI normalized to P001017 (chimeric OX108), % [4]: > 50%
- Geo mean (%) at 0.05 nM [10]: 2.1%
- Geo mean (%) at 0.19 nM [10]: 6.1%
- Geo mean (%) at 0.78 nM [10]: 15.8%
- Geo mean (%) at 3.125 nM [10]: 35.2%
- Geo mean (%) at 12.5 nM [10]: 65.7%
- Geo mean (%) at 50 nM [10]: 79.7%
- Geo mean (%) at 200 nM [10]: 96.9%
- Geo mean (%) at 800 nM [10]: 100%

B5: 1H10 (hybridoma clone) (antibody, V domains shown)
VH: QVQLQQPGAELVKPGTSVKLSCKASGYNFTSYWINWVKLRPGQGLEWIGDINPGSGSTNYNEKFRSKATLTVGTSSSTAYMQLSSLASEDSALYYCAREDYYGSRFFYWGQGTLVTVSA
VL: DVVMTQTPLSLPVSLGDQASISCRSSQSLVHSNGNTYLHWYLQKPGQSPKLLIYKVSNRFSGVPDRFSGSGSGTDFTLKISRVEAEDLGVYFCSQSTHVTFGAGTKLELK
- ELISA O.D. [6]: ≥ 1.5 O.D.
- binding result (Hybrid CD200R1 MH [7]): no binding (tested: 300 nM)
